± gives the standard deviation of the averaged measurements.
B1: library; a variant is named by its letters at N, in order (parent)
chain: GCUGUCACCGAGAAACUGUGAAGUAUAUCUUAAACCUGGGCACUUAAAAGAUAUAUGGAGUUAGUAGUGCAACCUGCUCGGUCUGAUGAGUCCNNNNNNGGACGAAACAGC

Tests used:
cyclic di-GMP [1] = variants of: B1; assay: normalized RNA/DNA level without ligand (relative to sTRSVctl = 100) (log10 (% of sTRSVctl)); HEK293T; ligand: cyclic di-GMP (c-di-GMP-II aptamer); higher = less ribozyme self-cleavage, higher mRNA level; conditions: reporter: mCherry (pCS4076), ligand present: no
In short: (§1)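 For each 6-well well, 4 µg of library plasmid encoding mCherry-linked ribozyme switches, or eGFP-linked ones in some ligand experiments, was transfected into HEK293T. Any ligand was added 1 h before transfection, and RNA was extracted with EDTA 72 h after it, then reverse-transcribed, amplified, barcoded and sequenced. RNA level was obtained by dividing RNA reads by DNA reads, normalizing to a spiked-in non-cleaving sequence or to the top sequences, then scaling and log-transforming. The top set was 25 sequences, scaling was ×100 with log10, and ≥100 DNA reads were required.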

cyclic di-GMP [2] = variants of: B1; assay: normalized RNA/DNA level with ligand (relative to sTRSVctl = 100) (log10 (% of sTRSVctl)); HEK293T; ligand: cyclic di-GMP (c-di-GMP-II aptamer); ligand concentration (+) RNA-Seq: 1 mM; higher = less ribozyme self-cleavage, higher mRNA level; conditions: reporter: mCherry (pCS4076), ligand present: yes
In short: as §1

Variant | normalized RNA/DNA level without ligand (log10) (cyclic di-GMP [1]) | normalized RNA/DNA level with ligand (log10) (cyclic di-GMP [2])
AAAUAC | 1.665 ± 0.0071 | 1.8 ± 0.11
UGAGAC | 1.71 ± 0.022 | 1.8 ± 0.093
CAGAAC | 1.54 ± 0.07 | 1.75 ± 0.089
UUAGCU | 1.775 ± 0.0051 | 1.89 ± 0.062
UUAGCA | 1.72 ± 0.052 | 1.83 ± 0.12
UCCGCU | 1.75 ± 0.052 | 1.88 ± 0.08
UCCGCA | 1.72 ± 0.021 | 1.86 ± 0.14
CGCGGC | 1.74 ± 0.03 | 1.87 ± 0.11
GUCGAA | 1.49 ± 0.068 | 1.65 ± 0.11
CAUUAG | 1.74 ± 0.021 | 1.84 ± 0.087
CCGUGA | 1.51 ± 0.067 | 1.7 ± 0.078
CAUCGU | 1.74 ± 0.095 | 1.83 ± 0.098
UUUUGC | 1.76 ± 0.045 | 1.85 ± 0.11
ACAAGG | 1.33 ± 0.17 | 1.54 ± 0.098
GUCCUC | 1.75 ± 0.026 | 1.9 ± 0.1
UGUGGC | 1.742 ± 0.0053 | 1.89 ± 0.082
CGUUUG | 1.71 ± 0.02 | 1.86 ± 0.069
CGUUUC | 1.59 ± 0.025 | 1.78 ± 0.11
GCUGGG | 1.56 ± 0.029 | 1.71 ± 0.15
GGGCGC | 1.84 ± 0.027 | 1.92 ± 0.091
UAAAUC | 1.63 ± 0.033 | 1.79 ± 0.17
CGCAUU | 1.47 ± 0.073 | 1.61 ± 0.11
CCUACA | 1.53 ± 0.07 | 1.77 ± 0.044
CUGUCU | 1.57 ± 0.086 | 1.76 ± 0.067

Variant | normalized RNA/DNA level without ligand (log10) (cyclic di-GMP [1]) | normalized RNA/DNA level with ligand (log10) (cyclic di-GMP [2])
GCGGGA | 1.62 ± 0.078 | 1.72 ± 0.068
GGCCGC | 1.71 ± 0.03 | 1.84 ± 0.097
GGGCAA | 1.72 ± 0.046 | 1.8 ± 0.026
CCCAUG | 1.53 ± 0.08 | 1.73 ± 0.13
CGCACA | 1.41 ± 0.091 | 1.59 ± 0.11
CGCACC | 1.7 ± 0.031 | 1.83 ± 0.12
ACAACG | 1.46 ± 0.1 | 1.65 ± 0.12
AUCUGU | 1.731 ± 0.012 | 1.88 ± 0.15
UUGACU | 1.75 ± 0.025 | 1.84 ± 0.11
GUUCCG | 1.82 ± 0.039 | 1.94 ± 0.1
AAAGUA | 1.42 ± 0.076 | 1.66 ± 0.12
ACCCAA | 1.56 ± 0.03 | 1.74 ± 0.15
CCCAAU | 1.55 ± 0.066 | 1.77 ± 0.11
UUACAG | 1.707 ± 0.0067 | 1.86 ± 0.14
AACGUU | 1.65 ± 0.056 | 1.82 ± 0.16
UAUAUA | 1.68 ± 0.076 | 1.86 ± 0.11
ACUCGU | 1.76 ± 0.043 | 1.85 ± 0.021
AUCAGC | 1.82 ± 0.025 | 1.88 ± 0.13
AUCAGU | 1.67 ± 0.065 | 1.82 ± 0.02
GACAUG | 1.61 ± 0.032 | 1.75 ± 0.12
GAUGCC | 1.772 ± 0.014 | 1.84 ± 0.1
AUGUUC | 1.681 ± 0.01 | 1.84 ± 0.1
UUGAAU | 1.661 ± 0.0028 | 1.83 ± 0.095
AUUUUU | 1.76 ± 0.03 | 1.89 ± 0.075

Variant | normalized RNA/DNA level without ligand (log10) (cyclic di-GMP [1]) | normalized RNA/DNA level with ligand (log10) (cyclic di-GMP [2])
AUUUUG | 1.68 ± 0.045 | 1.81 ± 0.056
AUUUUC | 1.74 ± 0.024 | 1.85 ± 0.092
AGUUCA | 1.62 ± 0.051 | 1.8 ± 0.061
UCCAUU | 1.63 ± 0.023 | 1.81 ± 0.14
UCAUCU | 1.71 ± 0.052 | 1.9 ± 0.1
GCGGUG | 1.6984 ± 0.00046 | 1.79 ± 0.13
UGCCCU | 1.79 ± 0.021 | 1.89 ± 0.057
UUGGAG | 1.6 ± 0.037 | 1.71 ± 0.066
GACCAA | 1.52 ± 0.083 | 1.71 ± 0.065
CAGGUU | 1.798 ± 0.0047 | 1.88 ± 0.053
GACGCC | 1.75 ± 0.092 | 1.83 ± 0.11
GCUAGU | 1.58 ± 0.069 | 1.78 ± 0.086
GAGCAU | 1.83 ± 0.037 | 1.91 ± 0.11
CUCACU | 1.57 ± 0.052 | 1.77 ± 0.092
UAGACG | 1.7073 ± 0.00046 | 1.87 ± 0.12
GUACAG | 1.65 ± 0.067 | 1.78 ± 0.12
CCUCUA | 1.427 ± 0.0066 | 1.68 ± 0.13
AACGGG | 1.51 ± 0.084 | 1.68 ± 0.098
AAGGCG | 1.728 ± 0.012 | 1.83 ± 0.091
GGCAAG | 1.55 ± 0.019 | 1.74 ± 0.15
CGGAUC | 1.63 ± 0.036 | 1.72 ± 0.15
CAACUA | 1.39 ± 0.069 | 1.6 ± 0.15
UGCUAU | 1.676 ± 0.0088 | 1.83 ± 0.13
AAAUUA | 1.54 ± 0.04 | 1.75 ± 0.11

Variant | normalized RNA/DNA level without ligand (log10) (cyclic di-GMP [1]) | normalized RNA/DNA level with ligand (log10) (cyclic di-GMP [2])
CCAAAA | 1.35 ± 0.091 | 1.62 ± 0.079
GUGAGG | 1.61 ± 0.06 | 1.8 ± 0.093
GCAGGC | 1.58 ± 0.032 | 1.71 ± 0.025
ACACAA | 1.41 ± 0.056 | 1.66 ± 0.16
CAGAUU | 1.48 ± 0.11 | 1.65 ± 0.1
UUAACA | 1.7 ± 0.019 | 1.8 ± 0.091
UAUCUA | 1.683 ± 0.0069 | 1.81 ± 0.097
GGUUAA | 1.54 ± 0.11 | 1.67 ± 0.029
CCUAGC | 1.6495 ± 0.00083 | 1.82 ± 0.056
GUGGCG | 1.85 ± 0.022 | 1.87 ± 0.094
CUGGCC | 1.8041 ± 0.00089 | 1.87 ± 0.096
GUACCA | 1.68 ± 0.044 | 1.81 ± 0.13
AUUGAC | 1.663 ± 0.0079 | 1.79 ± 0.15
GAGUCA | 1.82 ± 0.021 | 1.9 ± 0.085
UAAGAU | 1.597 ± 0.0022 | 1.79 ± 0.13
AUGGGA | 1.4 ± 0.12 | 1.56 ± 0.074
UUCUUG | 1.73 ± 0.045 | 1.86 ± 0.11
GAGUGC | 1.785 ± 0.006 | 1.86 ± 0.13
UCAACA | 1.708 ± 0.0058 | 1.81 ± 0.096
UCAGCA | 1.672 ± 0.004 | 1.82 ± 0.097
GCCUCG | 1.761 ± 0.0043 | 1.892 ± 0.0091
UUCGAU | 1.69 ± 0.066 | 1.85 ± 0.16
UCCUUU | 1.75 ± 0.021 | 1.9 ± 0.073
CUAGUG | 1.529 ± 0.0021 | 1.69 ± 0.12

Variant | normalized RNA/DNA level without ligand (log10) (cyclic di-GMP [1]) | normalized RNA/DNA level with ligand (log10) (cyclic di-GMP [2])
AGCCAU | 1.718 ± 0.0054 | 1.8 ± 0.11
UCCACG | 1.77 ± 0.057 | 1.87 ± 0.11
AACCUG | 1.57 ± 0.029 | 1.73 ± 0.092
AUCCAG | 1.719 ± 0.012 | 1.85 ± 0.13
AGACUU | 1.679 ± 0.0077 | 1.84 ± 0.13
UGGUGU | 1.6 ± 0.11 | 1.81 ± 0.063
GAUACG | 1.62 ± 0.019 | 1.76 ± 0.12
AAACGU | 1.47 ± 0.095 | 1.62 ± 0.18
UUCUGU | 1.7281 ± 0.00073 | 1.86 ± 0.1
CUAGGU | 1.7 ± 0.026 | 1.85 ± 0.14
UCAAAG | 1.602 ± 0.012 | 1.77 ± 0.12
UAGGCA | 1.68 ± 0.072 | 1.84 ± 0.13
AUCCGG | 1.85 ± 0.024 | 1.93 ± 0.023
CACAAC | 1.59 ± 0.028 | 1.77 ± 0.085
AACUUA | 1.615 ± 0.0013 | 1.79 ± 0.17
UCCCCG | 1.82 ± 0.03 | 1.96 ± 0.11
GAUAGC | 1.64 ± 0.019 | 1.76 ± 0.14
CGCCUG | 1.74 ± 0.036 | 1.82 ± 0.1
GUUCGG | 1.71 ± 0.018 | 1.84 ± 0.12
CAAUGG | 1.664 ± 0.0083 | 1.8 ± 0.087

— the supplement of paper PMC6757056
